In paper PMC6220978, “Induced conformational changes activate the peptidoglycan synthase PBP1B” (Molecular Microbiology, 2018) one finds Kd data, which are given here for one molecule.

Holding throughout (assay): SPR; PBP1B versions immobilised to the chip surface; CpoB versions injected from either 3.9 nM to 2 μM or from 78 nM to 40 μM; apparent KD by non-linear regression, at least three independent experiments
Conditions in all cases: both partners purified

The target of assay [1] is T1, PBP1B (wild type, PBP1B^46-844) (E. coli, UniProt P02919 46-844).
T1 construct: PBP1B, E. coli, residues 46-844, encoded on pDML924; Immobilised on the SPR chip as in Egan et al. 2014 / Gray et al. 2015; also called WT PBP1B; WT; source: E. coli BL21(DE3), purified (membrane extract, HisTrap, thrombin, HiTrap SP ion exchange)
T1 sequence (looked up): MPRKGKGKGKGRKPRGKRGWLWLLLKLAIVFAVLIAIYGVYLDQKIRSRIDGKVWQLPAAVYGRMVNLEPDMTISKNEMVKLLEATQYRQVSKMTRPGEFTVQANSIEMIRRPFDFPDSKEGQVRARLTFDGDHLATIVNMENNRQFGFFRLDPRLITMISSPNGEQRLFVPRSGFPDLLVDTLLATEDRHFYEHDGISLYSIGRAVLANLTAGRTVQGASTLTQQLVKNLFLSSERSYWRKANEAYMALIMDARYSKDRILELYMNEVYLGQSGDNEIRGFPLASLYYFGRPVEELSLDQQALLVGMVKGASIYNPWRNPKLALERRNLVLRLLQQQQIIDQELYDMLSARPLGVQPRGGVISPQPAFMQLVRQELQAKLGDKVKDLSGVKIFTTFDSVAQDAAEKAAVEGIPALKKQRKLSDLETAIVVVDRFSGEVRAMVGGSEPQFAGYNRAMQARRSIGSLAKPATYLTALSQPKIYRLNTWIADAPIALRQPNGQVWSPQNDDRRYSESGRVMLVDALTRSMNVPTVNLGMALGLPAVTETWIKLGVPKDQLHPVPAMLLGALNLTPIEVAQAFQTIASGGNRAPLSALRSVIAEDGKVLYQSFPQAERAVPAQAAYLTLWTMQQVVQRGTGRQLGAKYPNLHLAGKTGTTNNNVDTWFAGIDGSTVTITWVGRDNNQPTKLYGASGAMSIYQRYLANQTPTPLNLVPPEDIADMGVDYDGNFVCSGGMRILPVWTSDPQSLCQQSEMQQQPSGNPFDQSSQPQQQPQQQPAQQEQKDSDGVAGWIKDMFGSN

Another assay concerns the target T2, PBP1B D443A (E. coli, UniProt P02919 46-844, D443A).
T2 construct: PBP1B, E. coli, residues 46-844, made by mutagenesis of pDML924; source: E. coli BL21(DE3), purified (membrane extract, HisTrap, thrombin, HiTrap SP ion exchange)
T2 sequence (looked up): T1 sequence (looked up) with D398A

The target of a further assay is T3, PBP1B E341A (E. coli, UniProt P02919 46-844, E341A).
T3 construct: PBP1B, E. coli, residues 46-844, made by mutagenesis of pDML924; source: E. coli BL21(DE3), purified (membrane extract, HisTrap, thrombin, HiTrap SP ion exchange)
T3 sequence (looked up): T1 sequence (looked up) with E296A

Residue numbers refer to the chain shown, from its start.

B1: CpoB (full length) (natural protein, E. coli, UniProt P45955 27-263, looked up)
chain: QAPISSVGSGSVEDRVTQLERISNAHSQLLTQLQQQLSDNQSDIDSLRGQIQENQYQLNQVVERQKQILLQIDSLSSGGAAAQSTSGDQSGAAASTTPTADAGTANAGAPVKSGNANTDYNAAIALVQDKSRQDDAMVAFQNFIKNYPDSTYLPNANYWLGQLNYNKGKKDDAAYYFASVVKNYPKSPKAADAMFKVGVIMQDKGDTAKAKAVYQQVISKYPGTDGAKQAQKRLNAM
notes: CpoB, E. coli; The coiled-coil construct begins at residue 27, so the purified 'full length' protein may lack the signal peptide (surmise); source: E. coli BL21(DE3), purified (HisTrap, Superdex 200), as in Gray et al. 2015
B1: the Kd in assay [1] came to 94 nM; with PBP1B D443A, 95 nM; with PBP1B E341A it was 77 nM.
